Laboratory results published in patent US20240417446A1 (US Dept. of Health and Human Services, published 2024).

B1: NCI-CoV-CGH3 (VHH)
VHH: AVQLVESGGGLVQPGGSLRLSCAASGFTFSSYAMGWVRQAPGKGLEWISAINSGGDIRYYADSVKGRFTISRDNAKNTLYLQMNSLKPEDTAVYYCATDDEILSYGLGTSFDYWGQGTQVTVSS
B2: NCI-CoV-CGF10 (VHH)
VHH: AVQLVESGGGLVQPGGSLRLSCAASGFTFSSYGMHWVRQAPGKGLERVAGINWDGSNSYYTETVKGRFTISRDNAKNTAYLQMNSLKPEDTAMYYCRTLILDSDCDPGSTYRYAWGQGTQVTVSS
B3: NCI-CoV-CLA2 (VHH)
VHH: QVQLVESGGGSVQPGGSLRLSCAVSGYTSSSYCFGWFRQAPGKDREGIIAMEPGNTYTAGAVKGRFTISRDNAKNMVYLQMNSLKPDDTAMYYCAASPYPGTWLNPDLFDTWGQGTQVTVSS
B4: NCI-CoV-CG2G2 (VHH)
VHH: AVQLVESGGGSVPPGGSLTLSCTVSDNIFRTYAVGWFRQAPEKRCQWIATLNADESTEYNVAVTGRFTISRDNSGRSVYLQMDNLNSEDTAIYYCASLARKWSCHDSWGRGTQVTVSS
B5: NCI-CoV-CL3H4 (VHH)
VHH: DVQLVESGGGAVKPGGSLTLTCTVQEGSRNCVGWFRQGSGKDRQAVAMINGNGGTTNYDDRVKGRFQISRDGSLVHLRMNDVKLGDTDIYYCRQGQTYDCWGGTWTDSGWGQGTQVTVSS
B6: NCI-CoV-S2G8 (VNAR)
VNAR: ARVDQTPQTITKETGESLTINCVLRDSNCPLSNTYWYRKKSGSTNEESISKGGRYVETVNSGSKSFSLRINDLTVEDSGTYRCKVRTHWSICWEMGLEPNYDVYGGGTVVTVN
B7: NCI-CoV-S2A9 (VNAR)
VNAR: ARVDQTPRSVTKETGESLTINCVLRDASYALGRTCWYRKKSGSTNEESISKGGRYVETVNSGSKSFSLRINDLTVEDGGTYRCGVSTPWSCDYGPLCFYAACGDGTVVTVN
B8: NCI-CoV-CG2D11 (VHH)
VHH: AVQLVDSGGGSVQAGGSLRLSCAGSAFTYSSYCMGWFRQAPGKEREAVAAINSGTSSTYYADSVKGRFTVSQDNANNTVYLLMISLKPEDTAIYICAALVAPDYDDYDVAAPDNFDYWGQGTQVTVSS
B9: NCI-CoV-S4A9 (VNAR)
VNAR: ARVDQTPRSVTKETGESLTINCVLRDASYALGSTCWYRKKSGSTNEESISKGGRYVETVNSGSKSFSLRINDLTVEDGGTYRCGVQSRWGAVPKLCSNYAACGDGTAVTVN
B10: NCI-CoV-S3A10 (VNAR)
VNAR: ARVDQTPRSVTKETGESLTINCVLRDASYALGSTCWYRKKSGSTNEESISKGGRYVETVNSGSKSFSLRINDLTVEDGGTYRCGRIQNTKAVLLPCVYAACGDGTVVTVN

Experiments:
[1] = molecular target: T1, SARS-CoV-2 spike protein on pseudovirus (SARS-CoV-2, UniProt P0DTC2 14-1273); assay: cell-based or functional assay
A431-SARS-CoV-S = assay: Flow cytometry on A431 cells expressing SARS-CoV spike, anti-FLAG-APC detection
BSA [2] = molecular target: T2, BSA (bovine, UniProt P02769); assay: Protein ELISA, antigen coated, HRP-anti-Flag detection, OD450
T2 construct: also called bovine serum albumin
T2 sequence (P02769 25-607 limits assumed): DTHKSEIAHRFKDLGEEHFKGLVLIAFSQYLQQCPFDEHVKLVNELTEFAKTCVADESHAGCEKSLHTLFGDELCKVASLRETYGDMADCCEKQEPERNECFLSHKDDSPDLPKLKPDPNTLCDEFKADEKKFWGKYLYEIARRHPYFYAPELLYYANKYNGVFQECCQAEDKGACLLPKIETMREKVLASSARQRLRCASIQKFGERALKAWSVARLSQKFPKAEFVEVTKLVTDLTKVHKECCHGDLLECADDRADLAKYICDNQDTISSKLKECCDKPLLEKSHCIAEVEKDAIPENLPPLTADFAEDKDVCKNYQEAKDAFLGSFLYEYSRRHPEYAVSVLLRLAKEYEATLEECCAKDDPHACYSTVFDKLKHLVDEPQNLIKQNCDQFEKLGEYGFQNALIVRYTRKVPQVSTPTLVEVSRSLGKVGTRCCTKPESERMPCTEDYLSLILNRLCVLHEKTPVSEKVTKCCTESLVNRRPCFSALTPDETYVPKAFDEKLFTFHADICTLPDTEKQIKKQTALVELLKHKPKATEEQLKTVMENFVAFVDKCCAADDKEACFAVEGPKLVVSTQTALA

BSA [3] = molecular target: T2, BSA; assay: Protein ELISA, antigen coated, HRP-anti-Flag detection, absorbance 450 nm
BSA [4] = molecular target: T2, BSA; assay: as above; remark: listed apart in the source
[5] = molecular target: SARS-CoV-1 spike protein on pseudovirus (SARS-CoV-1, UniProt P59594 14-1255); assay: cell-based or functional assay
[6] = molecular target: T1, SARS-CoV-2 spike protein on pseudovirus; assay: cell-based or functional assay; remark: listed apart in the source
[7] = molecular target: T1, SARS-CoV-2 spike protein on pseudovirus; assay: cell-based or functional assay; remark: listed apart in the source

| Binder | Neutralizing Power, SARS-CoV-2 Pseudovirus Neutralization Assay [1] [%] | binding result (A431-SARS-CoV-S) | also measured |
| --- | --- | --- | --- |
| B1 | 30 | no binding |  |
| B2 | 20 | no binding |  |
| B3 | 45 |  |  |
| B4 | 50 |  | binding result (BSA [2]): no binding (tested: 10 µg/ml) |
| B5 | 30 |  |  |
| B6 | 50 | binds | binding result (BSA [3]): no binding (tested: 10 µg/ml) |
| B7 | 90 |  | binding result (BSA [4]): no binding (tested: 10 µg/ml); IC50 for neutralizing pseudovirus [5]: 49300 nM; IC50 for neutralizing pseudovirus [6]: 4340 nM; IC50, neutralization of the original strain of SARS-CoV-2 pseudovirus [7]: 1380 nM; IC50, pseudovirus neutralization (luciferase, 293-hACE2 cells) [7]: 1290 nM |
| B8 | 40 |  |  |
| B9 | 30 |  |  |
| B10 | 60 |  |  |
